Here are results for one molecule from patent publication US8415106B2, “Cell-based screen for agents useful for reducing neuronal demyelination or promoting neuronal remyelination” (Myelin Repair Foundation, Inc., priority 2005, dated 2013).

For one test, the system named is rat oligodendrocytes. In words: IFN-γ-induced apoptosis in cultured rat oligodendrocytes (TUNEL/CNP, caspase-3 activity). Format: cell-based. On the procedure: To test whether apoptosis of oligodendrocytes that is induced by INF-γ affects ER stress, the effect on the morphology, the degree of apoptosis and the expression of ER markers was studied in a culture of oligodendrocyte precursor cells (OPC). Oligodendrocyte progenitors were cultured from neonatal rat brains (Baerwald, et al. (1998) J. Neurosci. Res. 52: 230-239). A mixed glial culture was grown in flasks in medium containing 10% fetal bovine serum (FBS), and when the astrocyte layer became confluent (10-14 days), oligodendrocyte progenitors were separated from astrocytes and microglia using an orbital shaker. Cells, greater than 95% of which were A2B5 positive, GFAP negative and CD11b negative, were cultured in 0.5% FBS containing medium, which also contained PDGF (10 ng/ml) and FGF (5 ng/ml) (both from R&D Systems, Minneapolis, Minn.). Then cells were switched to 0.5% FBS medium without PDGF and FGF for differentiation. […]
The level of apoptosis of the OPC cells was determined by double staining CNP (1:200; Sternberger Monoclonals, Lutherville, Md.) and TUNEL using the ApopTag Kit (Serologicals Corp., Norcross, Calif.) and following the manufacturer's instructions. Apoptosis was also evaluated by measuring the activity of caspase-3 in oligodendrocyte lysates using the Fluorimetric Caspase 3 Assay Kit (Sigma, St. Louis, Mo.), according to the manufacturer's instructions.

Test [1] concerns ER stress markers (BIP, CHOP, caspase-12). Description: ER stress markers in the CNS of 14-day-old mice ectopically expressing IFN-γ (released from doxycycline at E14). Format: in vivo. As to conditions: PND 14, DOX− from E14. The source says:
To study the effect of INF-γ on the myelination of oligodendrocytes during mouse development, transgenic mice that allow for temporally regulated delivery of IFN-γ to the CNS using the tetracycline (tet) controllable system (Lin, et al. (2004) J. Neurosci. 24: 10074-10083) were generated. To drive tTA expression in astrocytes, the transcriptional regulatory region of the glial fibrillary acidic protein (GFAP) gene was chosen (Brenner, et al. (1994) J. Neurosci. 14: 1030-1037). GFAP/tTA mice were mated with TRE/IFN-γ mice to produce animals hemizygous for both transgenes. When these mice are maintained on doxycycline (DOX+), expression of the IFN-γ transgene is repressed (FIG. 10A); when the double transgenic mice are released from doxycycline (DOX−) INF-γ is expressed. For the purpose of these experiments, mice received doxycycline up to day 14 of development (E14), at which time the experimental animals (DOX−) stopped receiving doxycycline, while the control animals (DOX+) were continuously fed the dug. The mRNA for IFN-γ could be detected in the DOX− mice as early as 10 days after birth (data not shown).
Real time PCR analysis was performed to determine the levels of expression of INF-γ, MHC-1, BIP, CHOP, and caspase 12. The primers for the PCR reactions for BIP, CHP and caspase 12 are given in example 1. The sense and antisense primers for INF-γ were […] (SEQ ID NO: 39) and […] (SEQ ID NO: 40), respectively; and the sense and antisense primers for MHC-1 were MHC-I sense primer: ATTCCCCAAAGGCCCATGT (SEQ ID NO: 1); and MHC-I antisense primer: […] (SEQ ID NO: 2).
Western blot analysis was performed on the CNS of 14 day old mice to determine the expression of caspase-12 as described in Example 6.

Test [2] deals with ER stress markers (BIP, CHOP, p-eIF-2α). Description: ER stress markers in the corpus callosum during remyelination (real time PCR, Western blot). The class given is in vivo, mice. As for the experimental part:
Repression of remyelination by IFN-γ is associated with ER stress. […] To determine whether IFN-γ interferes with endoplasmic reticulum (ER) function in remyelinating oligodendrocytes, the expression of ER stress markers was monitored in the corpus callosum of mice expressing IFN-γ. The study was performed using the transgenic mice described in Example 1.
The level of mRNA encoding ER stress associated genes binding immunoglobulin protein/78 KDa glucose regulated protein (BIP/GRP78) and the CAATT enhancer-binding protein homologous protein/growth and DNA damage protein 153 (CHOP/GADD153), was determined using real time PCR, as described in Example 1 in the corpus callosum of the cuprizone treated mice of Example 1. The probes, sense and antisense primers that were used were: […]
The level of phosphorylated eIF-2α, which inhibits nucleotide exchange on the eIF-2 complex and attenuates most protein synthesis, was analyzed by Western blot, and the expression was colocalized by immunostaining CC1 antibodies as described above. Western blot analysis was performed as follows. The corpus callosum from 3 mice was rinsed in ice cold phosphate-buffered saline (PBS) and pooled, and immediately homogenized in 5 volumes of Triton X-100 buffer (20 mM HEPES pH 7.5, 150 mM NaCl, 1% Triton X-100, 10% glycerol, 1 mM EDTA, 10 mM tetrasodium pyrophosphate, 100 mM NaF, 17.5 mM β-glycerophosphate, 10 mM phenylmethylsulfonyl fluoride, 15 μg/ml aprotonin, and 6 μg/ml pepstatin A) using a motorized homogenizer. After incubation on ice for 15 min, the extracts were cleared by centrifugation at 14,000 rpm twice for 30 min each. The protein content of each extract was determined by protein assay (Bio-Rad). The extracts (40 μg) were separated by sodium dodecyl sulfate-polyacrylamide gel electrophoresis and transferred to nitrocellulose. […] The following primary antibodies were used: anti-eIF-2α (1:500; Santa Cruz, Santa Cruz, Calif.), anti-p-eIF-2α (1:1000, Cell signaling Technology), anti-CHOP (1:500; Santa Cruz) and anti-actin (1:1000; Sigma, St Louis, Mo.).
Background: Real-time PCR tracks product formation cycle by cycle.

Test [3] has as its system myelin basic protein (MBP). Description: Hippocampal organotypic cultures (HOC), in vitro model of myelination, MBP Western blot. The class given is cell-based. The note with it: 100 U/ml IFN-γ, 7 days, HOCs. On the procedure: HOCs, were prepared and maintained as described previously (Kunkler and Kraig (1997) J Cereb Blood Flow Metab. 17:26-43), and were maintained in vitro for 7 days before use. SAL at various concentrations was combined with 100 U/ml IFN-γ and added to the HOC cultures for 7 days. […] After 7 days of 100 U/ml IFN-γ exposure, the levels of MBP decreased approximately 80% in the HOCs (FIG. 29).

Where [4] appears, read: DOX− compared to control DOX+ mice.

B1: IFN-γ: pleotropic cytokine secreted by activated T lymphocytes and natural killer cells; recombinant rat IFN-γ added to cultures or transgenically expressed in mouse CNS (protein, UniProt P01581 23-156, looked up)
Interferon gamma: QGTLIESLESLKNYFNSSSMDAMEGKSLLLDIWRNWQKDGNTKILESQIISFYLRLFEVLKDNQAISNNISVIESHLITNFFSNSKAKKDAFMSIAKFEVNNPQIQHKAVNELIRVIHQLSPESSLRKRKRSRC
In the case of B1, in the test on rat oligodendrocytes (70 U/ml IFN-γ), the “caspase-3 activity in the cell lysates” value is given as “markedly increased”. The “TUNEL and CNP double labeling (apoptosis)” value in the test with rat oligodendrocytes (70 U/ml IFN-γ for 48 h, oligodendrocytes differentiated 5 days) is reported as “induced apoptosis in a significant number of oligodendrocytes”. Besides, in test [1], the BIP expression result is “approximately 1.6 times the control levels”, the CHOP expression was roughly 2 times the control levels and the caspase-12 expression result is recorded as “strongly enhanced”. Besides, in test [2] (setting [4]), the “level of mRNA for BIP” value is reported as “approximately 2 fold” and the “level of mRNA for CHOP” value is recorded as “approximately 2 fold”. Further, in test [2] (DOX− double transgenic mice), the “level of phosphorylated eIF-2α (Western blot)” value was “approximately 1.8 fold” and the “level of the CHOP protein (Western blot)” value is reported as “approximately 1.7 fold”. Further, the “decrease of MBP levels” value in test [3] is “approximately 80%”.
